From the domain aggregation screens of Martell et al. (2025)

Test: soluble fraction after stress (log2 fold change); higher = more stays soluble; pooled small domains, quantitative proteomics
Details: stress: 75 degC
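Note: 20 min heating vs room temperature control held 20 min.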

HMDDPLSQLTPREREVLELMASGASNQGIADALVITVRAVEKYVSSIFGKLGLPSTGSESRRVLAVLTFLR
soluble fraction (log2): -0.178

HMDDPYAGLRQRAYLFLRERDGAVPEEELIEHVFGSSGNPALWRPLLRQVLGADDRLDLRADGYWALRG
soluble fraction (log2): -0.187

HMDDSPTARALRTLDLIHNRPGITAAELADRLGVTERAVRRYVLTLRDAGVPVLGTPGRYGGYQVGK
soluble fraction (log2): -0.818

HMDDSVTFSEFVRMVDSGQVESVRITGNEVTGSDSTGNTFRTFVPPQYEGLVNRLVERDVAVTAEE
soluble fraction (log2): 0.149

HMDDSVVFSLNAKGIRLTGAGKYGEAIALFDKAIAAKPGLSGLYFNRAEARRLSGDLPGARSDLEQALAI
soluble fraction (log2): -0.416

HMDDTRLELTLLGKIHNDEEINKQSHINVNIKNGVILLTGESPRREITERILTLARTFEHTRQIVNQIAT
soluble fraction (log2): 0.0479

HMDDVIDVYATYDKSAEGVLSNIQLFSNQKKTTPITPESGKIYIDVEGNYQFRWTGTQYATV
soluble fraction (log2): 0.15

HMDDYRSLRGQEKAAIFLMSLSQEQAAKIFANLDDEEIKEISQAMSSLGTVGSEIIERLFVEFAEQVSS
soluble fraction (log2): -1.21

HMDEARLAVASNLIRLRTDAGMTQAELGEKLNYSDKTISKWERAEAIPDAFVLKQIGELFHVSVDFLLRTH
soluble fraction (log2): -2.28

HMDEDTWKLYKRAYKKYYARYMKGNMSEEAFKTWAAQAARDRDAAIEQVKAALDENLKAQVIERLKEELNR
soluble fraction (log2): -0.831

HMDEEEKGEVEVPNLIGLTRKEAKKTLEEEGLLIETKESLKTNLDDEYEKIKSQLPKAGIKIKQGSTVYVD
soluble fraction (log2): 0.154

HMDEGQEHYVKETDLPFYSEADPASSVIFPLVLNQKLIEKERKDDWIRALEPTTGLVGWVLLKSLSPQQLS
soluble fraction (log2): -0.0643

HMDEIELLLQDAIQKLPEKQRMVFTLRYYDNLPYEEISKILDMSVSTLKTNYHYAKSKIEQYILDHS
soluble fraction (log2): -1.64

HMDEKPPHEALSNREFQVLQLLAQGRSVGQIAQQLTLSANTISTYRARIFDKLGLHNPADLFSYAARHRLT
soluble fraction (log2): -1.19

HMDELNFGNFEGTRIFVQRTARKKSIALSIRDGTIVILAPRHIPNQEIQELITTNTDWIRAKLSQHAETKR
soluble fraction (log2): -3.21

HMDELVYVPNITGKTVEEARTELQKRDLGLNIAGHQFSDEFGKGRIISQDPAAGSRLKVNRSISVIVSSGQ
soluble fraction (log2): 0.0849

HMDENVVLRKVAREAFVIEYVRGIRAIDPGIGGPKLWLMYKREFGDNDTVGRDTFEDILDRNNLKVRI
soluble fraction (log2): -4.06

HMDEPADVAIFDGFRQMSEDELKKLYESLNLAMTFKDFLHIQNYFKNEENREPSVTEIRVLDTYWSDH
soluble fraction (log2): 0.0441

HMDEPVDRLSPREQEVLALMAEGRSNAAIAHRLSITEKAVAKHINSIFTKLDLPLDEDDHRRVRAVLAWLR
soluble fraction (log2): -1.33

HMDESIPVITYKDSVYANPKAFADAHKLPYKSLHNALSKARKEGKVRFMYKQYNFHLDNNGYIVAVS
soluble fraction (log2): -1.22

HMDESLLDYALREIKARIQNGTYPPGTKLSTQEISDSLGISRTPVVAAINRLVAQGVAEAIPRRGTIVAR
soluble fraction (log2): -0.19

HMDETFTITFDPNGGTLNGSKTKTVSLGDIVYGKLPTASKTGYSFIGWFTEKEGGEQISSATKIIASDLTL
soluble fraction (log2): 0.0518

HMDETPESIFAKANELYPKYIKYFYTEQEYYSKVEEYINLYEFQKNSTYILGKDLEEFLEEYITNKQ
soluble fraction (log2): -1.61

HMDEWDDGDKPKLKITLYADDDYYFASGFSKSSVSLSGSDGTVTSVSRSSSDTLIVYVTLDALD
soluble fraction (log2): 0.033

HMDEYILTLDEVKELLKSKDYDDLKNVLKWSNKFQKDTIIQTAISEKVSDANVINIIKEITGQDITSLIV
soluble fraction (log2): -0.0278

HMDEYTREQFVADMEEGRVREVTIHPNSEVPTGYIRVELANGADMKLYVTDIVEAEELVRSYGFDPPVRDV
soluble fraction (log2): 0.212

HMDFDFHALGREIKRKRKDKGWTQEYLAQLLDRTPRSIMYMENRGQHPSLNILFKIATLLEISIDQFFF
soluble fraction (log2): -0.114

HMDFDQELFDKIVEATMDEARAAMDTDDKNVREERWNKLIEHWHELFLEDYPEMDKYLEEITYKFQKNPAT
soluble fraction (log2): -0.662

HMDFEVGTVKWFNTKKGYGFITRDQGEDIFVHFRNIKGQGRRSLSDGERVSFVVTHGDKGLQADQVSP
soluble fraction (log2): -1.25

HMDFFTAAPEEDEIGKRIDVYIAEYKEELSRSRVQKLIENGLVTVNGKAVKSNYKLRKGDILEVEIPDPE
soluble fraction (log2): -0.0998

HMDFGPDSAAPLADGSAPEGFDVKGNADSMLYHEPDGRWYDATVAEVWFRTAEAAQAAGFTKAGS
soluble fraction (log2): -0.119

HMDFNNQLKRIRESNGLTQEQLAKILNVSRQSISSWEVGRNFPDLEMIVIISKEFNISLDQLIMG
soluble fraction (log2): -3.02

HMDFQTDVFISRFAELKKESGETNKDLQDVFELSLSALINYQTGKRIPDIAFLHKLAQHFGVSADYLLGLS
soluble fraction (log2): -0.277

HMDFRQALNTSADSDANKVALLESIVKGKYVSSTVNLLRRVITLRRGRSIDATLAAYSHYVSIR
soluble fraction (log2): 0.155

HMDFSVTIKGTSFPVMVSLKKMKQVRLKVFPSGEIKLSAPVGTPEKWIVEYLNDKMSWIEEKMDLFVQ
soluble fraction (log2): -1.26

HMDFTMSEIQTAMAALPRGYRTVVQLYLVDGYSHKEIAEMLGVDVNTSKSQLSRGRKQLQAFLAAMS
soluble fraction (log2): -0.152

HMDFYIVLGVDRAASVSDVKRAYRRLARKYHPDINPGDREAEAFFLRVTEAYETLIDPDRRQDYDVNG
soluble fraction (log2): -1.06

HMDFYPARVKWFNKSKGFGFANIFKSNDDIFLHIETLKRSGLSDLETGEAIVLTVTEGPRGKMADTILTWD
soluble fraction (log2): -0.531

HMDGDFGMNLDWQPSEHFPTLARQAGIPADHITAEAIAEFRSYWIGQGKAMTQYQWDHKLLTNLKATKTR
soluble fraction (log2): -1.19

HMDGEAQTYVEYGKWFPADLPLEAVRQLADGVPVTKELVAALNPRRSEWEEIKAGLDKIGYPNELL
soluble fraction (log2): -0.0206

HMDGEITLYKVVGYIKASDFDDKKNGFVIADDYITKRQAEDTMYEWKRKKTYPYLEIKEYKGKDPYK
soluble fraction (log2): 0.255

HMDGLAEQLFNILREELESGDYKPGQKLMSESALAQKYGVSRLTVRAAIARLSALDYVETRNGEGSFVKKR
soluble fraction (log2): -1.78

HMDGLDFIINENGKIANINEEGELLAKGENIMLGYYKDSISTNNTINNGWLHTGDIAKIDNDGFIYL
soluble fraction (log2): -0.0909

HMDGMNEELYQKFFALVGNPDEGKRISQAKAAQALGYSSAVVSAYKNRTYNGNIKAFEDAVQAWLKREERR
soluble fraction (log2): 0.17

HMDGPELYESMKAIVPDQLDRTIFLTGGAYTPRAQEFLARVPNQQMEKPFEFEALRSLLARLT
soluble fraction (log2): 0.128

HMDGTEVTTEPPGAQVEYEGKQFGPTPARIPGLVAGKSLHITLPGYLEVKPKIKAVPKDGEPLSFTLTAI
soluble fraction (log2): -0.0613

HMDGVEVVTKPAGAQIEFAGKSYGPSPVHIPGLVAGSQLILRLPGFQAATVRLRTAPDKSKALEYTLQPA
soluble fraction (log2): -0.278

HMDGVLVYKEGMTVADMATGLGKTIAQVVMKLMQLGIMANQNQSVDRETVELVALDFGYELKD
soluble fraction (log2): -2.27

HMDGVSAEAVKSHIKTLIDGEGAKILSDDTLVDLLNAKGFDIARRTVAKYREAMGIGSSVQRRRQKKMG
soluble fraction (log2): 0.00787

HMDGYLQLASKKNELITQLKTPPKPKRLFKDFEDRVYLITEYKVFVVSIFQNEFRLRPVNKDDFYRYTT
soluble fraction (log2): 0.293

HMDGYTAVDKAVSDQYYTKENQLYFVSMGNFFSLGAKKIEGADISSFQILTTEYARDLQHLYFNGKV
soluble fraction (log2): -0.224

HMDHFFSKYDSIVNHTVQKKETLFGISKKYGLTINEVIKFNPGIQIDKLKRRSVLIIPLMKKN
soluble fraction (log2): -1.07

HMDHKSALQELLAPRGLQPSYRLVEEAGPAHARVFTSEVSVDGVARGSGTGTTIKMSEQAAAREALASLG
soluble fraction (log2): 0.249

HMDHKSQLQEWAQSTLGETPRYVTIAETGPDHDKELTVELIIGRKSYSIAKGKSKKQAEQSAARIALGLLM
soluble fraction (log2): -1.99

HMDHKSSYWSVKEANLFPELLKQFGSQWSLISDKLGTKSTTMVRNYYQRNAAQLGWKSVVEEADFKRNA
soluble fraction (log2): -0.585

HMDHTYKHIELTGSSEKGIEEAVQNALAKASESVQNMRWLEVTDTRGHIEDGRVAHWQVTVKVGFTL
soluble fraction (log2): 0.213

HMDHVEDRMVLEVVLKKLTEEERRIVMLHAVSGLKHREIAKALDIPLSTVLSKYKRTLKKLEAYLMEME
soluble fraction (log2): -1.72

HMDIADKLTKREFEIFIAIAMNKSRFDIANELGLSAKTVSNGLTVIKRKLNAVPSQFSAIAAKHGYIG
soluble fraction (log2): -2.68

HMDIAYFSNAELNDAFIQFLNMRQEAGKQLNGYQIQILTEKLERVADTDEDRISAVKNAIAGGWSNFYPPK
soluble fraction (log2): -0.607

HMDIDASEVRGIISQYINEPDGRVSYILETIQKKYRYLPEEAIRIVAQELEVPLTQLFGVATFYAAFSL
soluble fraction (log2): 0.188

HMDIDLNTIKKITLDDIHAFLSYLTTTYHSKAATRARKASSIRVFFNYLSAKANLIEVNPAQNLETPKLD
soluble fraction (log2): 0.165

HMDIEELLSRSTDRLSRQTEIRRLLADAQGRPNISSLARRFKVARRTVIRDLQELIRRGEVPPEIYPK
soluble fraction (log2): -1.1

HMDIEFSDELRTFIDEWSKKEGGLVMMLHRIQNEYGFIPRTAAEKLSLISGIPLARIYGVITFYHFFKT
soluble fraction (log2): -0.499

HMDIGNKIKELRTEQKMTQSDLAERLGVTKSSISSYENGSRLPSYDILLKIARIFKVSTDILLG
soluble fraction (log2): -1.47

HMDIGTRQRIIAAAMELFRQKGMDGMSMRELAERAGVNKGLLHYYFTTKEAIFREVFVHQVEM
soluble fraction (log2): -0.084

HMDIIIEEGIDESLSTDDAILDLLGRASDAFSNAQKALLEGDLGSYQKLIEQAERLVKKATELLGENN
soluble fraction (log2): -0.377

HMDIMNNILINRIKKILTEQNMSKADLSRLTGISNSSLSEYLNGKYEPKQDKIALIAKALHVSPAWLMGF
soluble fraction (log2): -1.22

HMDINNTNFSRDVDNLLQNEEFIKWRIFRTKEWEDYWENFRKENPHMEDALQEAISRFNAVK
soluble fraction (log2): 0.264

HMDINVDILPLLKTMTDTLRKVIELDIPFLKDARVQRVNSLDELLLRADITTAEKFRKVFEAYQIEADFGK
soluble fraction (log2): -0.976

HMDIPDIGHNVRIEVDGHNGKTTHEGIILHPAAPNHITIKLANGYNASYKLEEIINIEILGELGDDSKI
soluble fraction (log2): -0.136

HMDIPITFEQLPAKAQAFVKQYFKIEEIASVWRDDDIHDQDYKVYFNDGSEIEFYANGDWEEV
soluble fraction (log2): -0.827

HMDIPTSAEAVRAYLASGFIKGIGEATARMLVDKFGAETLEIIKTEPMKLTKISGIGPKKAKMIHESYLEK
soluble fraction (log2): 0.12

HMDIRLMPGTVLTREYQGIEHRVTVAQDGQYEFEGRRYPSLSMIAREITGTRWSGPLFFGVK
soluble fraction (log2): -1.09

HMDISEIEKRLLDFLEMPRSRKEIAEHLGIRTISYAIQTYITPLIDKKLVKMTIPESPRSHSQQYVRIN
soluble fraction (log2): -1.92

HMDISRMNLSQTERAVLSVLDSQPLHTEEIIASADLRAGAIHSALISLQLKGLIKQLPGNLYVK
soluble fraction (log2): -0.78

HMDITKPKISFEPGEMVRVVDGPFNDFSGVVEEVNYEKSKVRVAVLIFGRSTPVELQFNQIEK
soluble fraction (log2): -1.37
